# Source: the supplement of paper PMC11246515
# ± gives the standard deviation of the averaged measurements.
# Test: total protein half-life in vivo (active degradation + dilution); higher = more stable protein
# [1] = E. coli NCM3722 delta-clpP delta-lon delta-hslV, growth: N-lim chemostat, doubling time 6 h
# [2] = E. coli NCM3722 delta-clpP, growth: N-lim chemostat, doubling time 6 h
# [3] = E. coli NCM3722 delta-hslV, growth: N-lim chemostat, doubling time 6 h
# [4] = E. coli NCM3722 delta-lon, growth: N-lim chemostat, doubling time 6 h
# [5] = E. coli NCM3722 delta-smpB, growth: N-lim chemostat, doubling time 6 h
# [6] = wild type E. coli NCM3722, growth: C-lim chemostat, doubling time 3 h
# [7] = wild type E. coli NCM3722, growth: C-lim chemostat, doubling time 6 h
# [8] = wild type E. coli NCM3722, growth: C-lim chemostat, doubling time 12 h
# [9] = wild type E. coli NCM3722, growth: N-lim chemostat, doubling time 6 h
# [10] = wild type E. coli NCM3722, growth: N-lim chemostat, doubling time 12 h
# [11] = wild type E. coli NCM3722, growth: P-lim chemostat, doubling time 6 h
# [12] = wild type E. coli NCM3722, growth: P-lim chemostat, doubling time 12 h
Sequence,total protein half-life in vivo [1],total protein half-life in vivo [2],total protein half-life in vivo [3],total protein half-life in vivo [4],total protein half-life in vivo [5],total protein half-life in vivo [6],total protein half-life in vivo [7],total protein half-life in vivo [8],total protein half-life in vivo [9],total protein half-life in vivo [10],total protein half-life in vivo [11],total protein half-life in vivo [12]
MQCALYDAGRCRSCQWIMQPIPEQLSAKTADLKNLLADFPVEEWCAPVSGPEQGFRNKAKMVVSGSVEKPLLGMLHRDGTPEDLCDCPLYPASFAPVFAALKPFIARAGLTPYNVARKRGELKYILLTESQSDGGMMLRFVLRSDTKLAQLRKALPWLHEQLPQLKVITVNIQPVHMAIMEGETEIYLTEQQALAERFNDVPLWIRPQSFFQTNPAVASQLYATARDWVRQLPVKHMWDLFCGVGGFGLHCATPDMQLTGIEIASEAIACAKQSAAELGLTRLQFQALDSTQFATAQGDVPELVLVNPPRRGIGKPLCDYLSTMAPRFIIYSSCNAQTMAKDIRELPGFRIERVQLFDMFPHTAHYEVLTLLVKQ,5.35 ± 0.065 h,3.16 h,4.89 ± 0.31 h,5.02 ± 0.69 h,4.32 ± 0.3 h,3.6 h,5.35 ± 0.8 h,> 16 h,5.51 h,10.8 ± 1.5 h,5.7 ± 0.55 h,11.9 ± 1.2 h
MQWQTKLPLIAILRGITPDEALAHVGAVIDAGFDAVEIPLNSPQWEQSIPAIVDAYGDKALIGAGTVLKPEQVDALARMGCQLIVTPNIHSEVIRRAVGYGMTVCPGCATATEAFTALEAGAQALKIFPSSAFGPQYIKALKAVLPSDIAVFAVGGVTPENLAQWIDAGCAGAGLGSDLYRAGQSVERTAQQAAAFVKAYREAVQ [Q6BF16],4.76 h,,,,,2.04 h,3.84 h,8.18 h,,,,
MSIVMQLQDVAESTRLGPLSGEVRAGEILHLVGPNGAGKSTLLARMAGMTSGKGSIQFAGQPLEAWSATKLALHRAYLSQQQTPPFATPVWHYLTLHQHDKTRTELLNDVAGALALDDKLGRSTNQLSGGEWQRVRLAAVVLQITPQANPAGQLLLLDEPMNSLDVAQQSALDKILSALCQQGLAIVMSSHDLNHTLRHAHRAWLLKGGKMLASGRREEVLTPPNLAQAYGMNFRRLDIEGHRMLISTI,4.65 ± 0.84 h,2.32 ± 0.27 h,3.72 h,2.59 h,2.37 ± 0.03 h,2.13 ± 0.1 h,3.49 ± 0.41 h,4.65 h,3.11 ± 0.33 h,,4.37 h,6.509 ± 0.027 h
MSEFSQTVPELVAWARKNDFSISLPVDRLSFLLAVATLNGERLDGEMSEGELVDAFRHVSDAFEQTSETIGVRANNAINDMVRQRLLNRFTSEQAEGNAIYRLTPLGIGITDYYIRQREFSTLRLSMQLSIVAGELKRAADAAEEGGDEFHWHRNVYAPLKYSVAEIFDSIDLTQRLMDEQQQQVKDDIAQLLNKDWRAAISSCELLLSETSGTLRELQDTLEAAGDKLQANLLRIQDATMTHDDLHFVDRLVFDLQSKLDRIISWGQQSIDLWIGYDRHVHKFIRTAIDMDKNRVFAQRLRQSVQTYFDEPWALTYANADRLLDMRDEEMALRDEEVTGELPEDLEYEEFNEIREQLAAIIEEQLAVYKTRQVPLDLGLVVREYLSQYPRARHFDVARIVIDQAVRLGVAQADFTGLPAKWQPINDYGAKVQAHVIDKY,5.86 ± 0.58 h,6.12 ± 0.39 h,5.79 ± 0.81 h,5.07 ± 0.54 h,5.246 ± 0.022 h,3.2 ± 0.06 h,5.42 ± 0.67 h,9.64 ± 0.19 h,5.36 ± 0.55 h,7.76 ± 0.8 h,5.7 ± 0.13 h,8.345 ± 0.032 h
MAQGTLYIVSAPSGAGKSSLIQALLKTQPLYDTQVSVSHTTRQPRPGEVHGEHYFFVNHDEFKEMISRDAFLEHAEVFGNYYGTSREAIEQVLATGVDVFLDIDWQGAQQIRQKMPHARSIFILPPSKIELDRRLRGRGQDSEEVIAKRMAQAVAEMSHYAEYDYLIVNDDFDTALTDLKTIIRAERLRMSRQKQRHDALISKLLAD,4.92 ± 0.11 h,4.94 ± 0.094 h,4.492 ± 0.0085 h,4.85 ± 0.71 h,4.493 ± 0.03 h,2.78 ± 0.075 h,6.12 ± 1.5 h,8.87 ± 3.6 h,5.11 ± 0.12 h,8.324 ± 0.018 h,5.66 ± 0.11 h,11.8 ± 0.35 h
MTEQEKTSAVVEETREAVDTTSQPVATEKKSKNNTALILSAVAIAIALAAGIGLYGWGKQQAVNQTATSDALANQLTALQKAQESQKAELEGIIKQQAAQLKQANRQQETLAKQLDEVQQKVATISGSDAKTWLLAQADFLVKLAGRKLWSDQDVTTAAALLKSADASLADMNDPSLITVRRAITDDIASLSAVSQVDYDGIILKLNQLSNQVDNLRLADNDSDGSPMDSDGEELSSSISEWRINLQKSWQNFMDNFITIRRRDDTAVPLLAPNQDIYLRENIRSRLLVAAQAVPRHQEETYRQALENVSTWVRAYYDTDDATTKAFLDEVDQLSQQNISMDLPETLQSQAMLEKLMQTRVRNLLAQPAAGTTEAKPAPAPQADTPAAAPQGE,5.965 ± 0.022 h,6.63 ± 1.1 h,6.31 ± 0.23 h,6.06 ± 0.28 h,6.54 ± 0.59 h,3.15 ± 0.072 h,5.98 ± 0.23 h,11.3 ± 1.5 h,6.09 ± 0.16 h,13.7 ± 0.83 h,6.17 ± 0.24 h,12.8 ± 1.5 h
MLDANKLQQAVDQAYTQFHSLNGGQNADYIPFLANVPGQLAAVAIVTCDGNVYSAGDSDYRFALESISKVCTLALALEDVGPQAVQDKIGADPTGLPFNSVIALELHGGKPLSPLVNAGAIATTSLINAENVEQRWQRILHIQQQLAGEQVALSDEVNQSEQTTNFHNRAIAWLLYSAGYLYCDAMEACDVYTRQCSTLLNTIELATLGATLAAGGVNPLTHKRVLQADNVPYILAEMMMEGLYGRSGDWAYRVGLPGKSGVGGGILAVVPGVMGIAAFSPPLDEDGNSVRGQKMVASVAKQLGYNVFKG,5.46 ± 0.86 h,5.64 ± 1.6 h,4.65 ± 0.16 h,4.81 ± 0.26 h,4.57 ± 0.085 h,,> 8 h,10.1 h,4.75 ± 0.39 h,7.14 ± 2.3 h,6.4 ± 0.21 h,12.4 ± 0.65 h
MTDMNILDLFLKASLLVKLIMLILIGFSIASWAIIIQRTRILNAAAREAEAFEDKFWSGIELSRLYQESQGKRDNLTGSEQIFYSGFKEFVRLHRANSHAPEAVVEGASRAMRISMNRELENLETHIPFLGTVGSISPYIGLFGTVWGIMHAFIALGAVKQATLQMVAPGIAEALIATAIGLFAAIPAVMAYNRLNQRVNKLELNYDNFMEEFTAILHRQAFTVSESNKG [P0ABU9],5.8 ± 0.98 h,6.17 ± 0.19 h,7.1 ± 0.95 h,6.83 ± 1.3 h,6.07 ± 0.051 h,3.13 ± 0.22 h,6.078 ± 0.021 h,11.9 ± 1.4 h,5.74 ± 0.16 h,11.6 ± 1.6 h,5.93 ± 0.14 h,12.7 ± 0.76 h
MKQTVYIASPESQQIHVWNLNHEGALTLTQVVDVPGQVQPMVVSPDKRYLYVGVRPEFRVLAYRIAPDDGALTFAAESALPGSPTHISTDHQGQFVFVGSYNAGNVSVTRLEDGLPVGVVDVVEGLDGCHSANISPDNRTLWVPALKQDRICLFTVSDDGHLVAQDPAEVTTVEGAGPRHMVFHPNEQYAYCVNELNSSVDVWELKDPHGNIECVQTLDMMPENFSDTRWAADIHITPDGRHLYACDRTASLITVFSVSEDGSVLSKEGFQPTETQPRGFNVDHSGKYLIAAGQKSHHISVYEIVGEQGLLHEKGRYAVGQGPMWVVVNAH,,4.59 ± 0.99 h,4.79 ± 0.47 h,6.52 ± 0.2 h,4.87 ± 0.15 h,3.17 ± 0.23 h,,11.1 ± 2 h,4.95 ± 0.27 h,9.37 ± 2.2 h,6.2 ± 2.5 h,
MSMSHINYNHLYYFWHVYKEGSVVGAAEALYLTPQTITGQIRALEERLQGKLFKRKGRGLEPSELGELVYRYADKMFTLSQEMLDIVNYRKESNLLFDVGVADALSKRLVSSVLNAAVVEGEPIHLRCFESTHEMLLEQLSQHKLDMIISDCPIDSTQQEGLFSVRIGECGVSFWCTNPPPEKPFPACLEERRLLIPGRRSMLGRKLLNWFNSQGLNVEILGEFDDAALMKAFGAMHNAIFVAPTLYAYDFYADKTVVEIGRVENVMEEYHAIFAERMIQHPAVQRICNTDYSALFSPAVR [P0A9G2],6.03 ± 0.4 h,6.18 h,4.38 h,5.99 ± 1.4 h,5.21 ± 0.34 h,,5.51 h,9.31 h,5.76 ± 1.2 h,,4.93 ± 1.5 h,10.2 h
MTTHLVWFRQDLRLHDNLALAAACRNSSARVLALYIATPRQWATHNMSPRQAELINAQLNGLQIALAEKGIPLLFREVDDFVASVEIVKQVCAENSVTHLFYNYQYEVNERARDVEVERALRNVVCEGFDDSVILPPGAVMTGNHEMYKVFTPFKNAWLKRLREGMPECVAAPKVRSSGSIEPSPSITLNYPRQSFDTAHFPVEEKAAIAQLRQFCQNGAGEYEQQRDFPAVEGTSRLSASLATGGLSPRQCLHRLLAEQPQALDGGAGSVWLNELIWREFYRHLITYHPSLCKHRPFIAWTDRVQWQSNPAHLQAWQEGKTGYPIVDAAMRQLNSTGWMHNRLRMITASFLVKDLLIDWREGERYFMSQLIDGDLAANNGGWQWAASTGTDAAPYFRIFNPTTQGEKFDHEGEFIRQWLPELRDVPGKVVHEPWKWAQKAGVTLDYPQPIVEHKEARVQTLAAYEAARKGK,5.62 ± 0.31 h,6.1 ± 1 h,6.2 ± 0.4 h,6.08 ± 0.8 h,5.35 ± 0.34 h,3.23 ± 0.22 h,6.25 ± 0.49 h,11.533 ± 0.011 h,5.49 ± 0.16 h,11.1 ± 0.21 h,6.17 ± 0.76 h,11.62 ± 0.014 h
MIKWPWKVQESAHQTALPWQEALSIPLLTCLTEQEQSKLVTLAERFLQQKRLVPLQGFELDSLRSCRIALLFCLPVLELGLEWLDGFHEVLIYPAPFVVDDEWEDDIGLVHNQRIVQSGQSWQQGPIVLNWLDIQDSFDASGFNLIIHEVAHKLDTRNGDRASGVPFIPLREVAGWEHDLHAAMNNIQEEIELVGENAASIDAYAASDPAECFAVLSEYFFSAPELFAPRFPSLWQRFCQFYQQDPLQRLHHANDTDSFSATNVH,4.48 ± 0.42 h,3.08 ± 0.31 h,1.36 ± 0.03 h,1.79 ± 0.075 h,1.51 ± 0.037 h,1.16 ± 0.016 h,1.87 ± 0.28 h,2.19 ± 0.13 h,1.53 h,2.44 ± 0.53 h,1.76 ± 0.39 h,3.29 ± 0.75 h
